# Patent US20180291072
# B1: Recombinant MMP-2 (protein)
# chain: YNFFPRKPKWDKNQITYRIIGYTPDLDPETVDDAFARAFQVWSDVTPLRFSRIHDGEADIMINFGRWEHGDGYPFDGKDGLLAHAFAPGTGVGGDSHFDDDELWTLGEGQVVRVKYGNADGEYCKFPFLFNGKEYNSCTDTGRSDGFLWCSTTYNFEKDGKYGFCPHEALFTMGGNAEGQPCKFPFRFQGTSYDSCTTEGRTDGYRWCGTTEDYDRDKKYGFCPETAMSTVGGNSEGAPCVFPFTFLGNKYESCTSAGRSDGKMWCATTANYDDDRKWGFCPDQGYSLFLVAAHEFGHAMGLEHSQDPGALMAPIYTYTKNFRLSQDDIKGIQELYGASPDIDLGTGPTPTLGPVTPEICKQDIVFDGIAQIRGEIFFFKDRFIWRTVTPRDKPMGPLLVATFWPELPEKIDAVYEAPQEEKAVFFAGNEYWIYSASTLERGYPKPLTSLGLPPDVQRVDAAFNWSKNKKTYIFAGDKFWRYNEVKKKMDPGFPKLIADAWNAIPDNLDAVVDLQGGGHSYFFKGAYYLKLENQSLKSVKFGSIKSDWLGC
# Experiments:
# [1] = biological target: type II fusion peptide (pro-apoptotic peptide-linker-ferritin monomer fragment-linker-GFP fusion polypeptide)
# [2] = biological target: KLAK-sFt-GFP fusion peptide (pro-apoptotic peptide-ferritin monomer fragment-linker-GFP fusion polypeptide)
# [3] = biological target: wFt-GFP fusion peptide
# [4] = biological target: sFt-GFP fusion peptide
protein,measurement,setting,value
B1,"linker cleavage, SDS-PAGE of products",[1],"each linker of type I fusion peptide and type II fusion peptide was cleaved, and products generated by the linker cleavage were observed in a concentration-dependent manner"
same,"linker cleavage, SDS-PAGE of products",[2],"each linker of type I fusion peptide and type II fusion peptide was cleaved, and products generated by the linker cleavage were observed in a concentration-dependent manner"
same,"linker cleavage, SDS-PAGE",[3],sFt-GFP was more easily cleaved by MMP-2 as compared with wFt-GFP
same,"linker cleavage, SDS-PAGE",[4],sFt-GFP was more easily cleaved by MMP-2 as compared with wFt-GFP
